Results reported in the supplement of paper PMC10065799, “High-throughput profiling of sequence recognition by tyrosine kinases and SH2 domains using bacterial peptide display” (eLife, 2023).

Test system: AncSZ
Experiment: phosphorylation enrichment, bacterial display (enrichment ratio); higher = better substrate or ligand; peptides without Tyr show the background
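Further: 11-residue human phosphosite peptides and single-mutation variants displayed on the E. coli surface, counted by deep sequencing, each peptide's frequency after selection divided by its frequency in the unselected input library; frequency after pTyr selection over input frequency; kinase dosed for 20-30% of maximal phosphorylation in three min.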

| Sequence | phosphorylation enrichment |
| --- | --- |
| PTKNDYWAMLA [WWOX_Y287] | 1.64 |
| FQNSLYAPDFS [FAM92A_Y226_R222Q_YF] | 0.9 |
| PVADPYDQSFE [MAPK14_Y323] | 1.66 |
| VNFDFYTVNLG [GFPT1_Y367_D366Y_YF] | 1.29 |
| KRGASYILKLA [SERPINB1_Y84] | 0.96 |
| SLTGAYASGIP [POM121C_Y378_T379A] | 0.627 |
| EEGNPYYSSTR [MCCC2_Y520_A524T] | 1.1 |
| DPLLTYRFPPN [LMNA_Y481_K486N] | 0.882 |
| IRRIAYEFVEM [ADA_Y84_K80R] | 0.887 |
| VDEERYDIEGK [TNNI3_Y112_A116G] | 1.44 |
| MHDSNCVSKGS [PDGFRA_Y849_Y849C] | 0.57 |
| RFLRGYHQDAY [HLA-A_Y137_R138H] | 0.963 |
| SIKDKYLTALF [KCNH2_Y611_V612L_YF] | 0.724 |
| AHPIIYDIIEA [PYKtide_D_2014] | 1.41 |
| AEEKEYHAEEG [EGFR_Y869_G873E] | 1.29 |
| VGGRIYIDDAL [PKLR_Y218_G222A] | 0.86 |
| VAFVYYKSIGP [ADGRL4_Y302] | 1.41 |

| Sequence | phosphorylation enrichment |
| --- | --- |
| FTNRNYDLDYD [MYC_Y12] | 1.13 |
| DVYVSYDYGKS [SORL1_Y139] | 1.45 |
| ICGVSYDEYRY [CFTR_Y512_F508C] | 1.46 |
| LLREWYVQDPY [SIX3_Y225_L226V] | 1.18 |
| KVKPIYLHTQG [AR_Y916_F917L] | 0.687 |
| YVKEPYIQSRF [HIPK4_Y175] | 0.628 |
| SGSIHYSCVPR [GLB1_Y57_R59C] | 1.05 |
| ADMETYLLEKS [MYH7_Y266_I263M] | 0.949 |
| ISTAGYSIPEL [EDAR_Y406] | 0.807 |
| FEEDSYVKRSQ [RET_Y905_YF] | 0.904 |
| TGDFGYRAPGF [TNS2_Y668_YF] | 0.724 |
| DAAEDYAEGVC [DHODH_Y194_R199C] | 1.31 |
| TTKAKYKTPTF [PLD2_Y573_YF] | 0.417 |
| TSIGNYYKPWF [DHCR24_Y299_N294T] | 1 |
| HPAGNYSLSSV [ARFGAP3_Y473_Q468H] | 0.49 |
| NARGLYFKLHN [GATA2_Y376_C373R_YF] | 1.51 |

Biological target: EPHB1 (UniProt P54762)
Sequence (P54762 whole entry, looked up): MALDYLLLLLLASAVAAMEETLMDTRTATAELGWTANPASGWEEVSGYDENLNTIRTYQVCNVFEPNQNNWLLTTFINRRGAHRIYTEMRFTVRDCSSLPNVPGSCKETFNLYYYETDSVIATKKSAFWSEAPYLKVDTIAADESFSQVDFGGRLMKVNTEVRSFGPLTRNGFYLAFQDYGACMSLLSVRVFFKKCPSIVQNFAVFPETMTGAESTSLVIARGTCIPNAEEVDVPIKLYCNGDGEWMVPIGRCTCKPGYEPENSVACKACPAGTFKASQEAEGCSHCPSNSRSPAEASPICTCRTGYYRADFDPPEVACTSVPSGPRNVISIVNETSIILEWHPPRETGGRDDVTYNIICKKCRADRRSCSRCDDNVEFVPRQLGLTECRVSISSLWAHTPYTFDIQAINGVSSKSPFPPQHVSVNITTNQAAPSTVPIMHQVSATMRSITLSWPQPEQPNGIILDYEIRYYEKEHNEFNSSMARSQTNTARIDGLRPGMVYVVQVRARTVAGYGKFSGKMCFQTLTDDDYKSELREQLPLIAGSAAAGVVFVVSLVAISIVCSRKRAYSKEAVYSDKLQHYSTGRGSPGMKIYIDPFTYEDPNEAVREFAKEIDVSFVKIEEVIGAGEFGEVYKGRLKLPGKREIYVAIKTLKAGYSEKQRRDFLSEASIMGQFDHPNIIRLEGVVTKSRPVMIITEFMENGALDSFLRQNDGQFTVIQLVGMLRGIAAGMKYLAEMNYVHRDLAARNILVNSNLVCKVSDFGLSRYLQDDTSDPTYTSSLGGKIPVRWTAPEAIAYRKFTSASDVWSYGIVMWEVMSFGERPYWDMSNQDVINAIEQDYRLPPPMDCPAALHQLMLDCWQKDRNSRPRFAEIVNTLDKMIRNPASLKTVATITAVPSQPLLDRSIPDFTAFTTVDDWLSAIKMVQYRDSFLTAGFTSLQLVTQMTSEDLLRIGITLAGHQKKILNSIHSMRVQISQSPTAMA
Experiment: as above

| Sequence | phosphorylation enrichment |
| --- | --- |
| PTKNDYWAMLA [WWOX_Y287] | 1.78 |
| FQNSLYAPDFS [FAM92A_Y226_R222Q_YF] | 4.07 |
| PVADPYDQSFE [MAPK14_Y323] | 0.695 |
| VNFDFYTVNLG [GFPT1_Y367_D366Y_YF] | 0.804 |
| KRGASYILKLA [SERPINB1_Y84] | 0.37 |
| SLTGAYASGIP [POM121C_Y378_T379A] | 0.518 |
| EEGNPYYSSTR [MCCC2_Y520_A524T] | 0.595 |
| DPLLTYRFPPN [LMNA_Y481_K486N] | 0.446 |
| IRRIAYEFVEM [ADA_Y84_K80R] | 0.343 |
| VDEERYDIEGK [TNNI3_Y112_A116G] | 0.737 |
| MHDSNCVSKGS [PDGFRA_Y849_Y849C] | 0.396 |
| RFLRGYHQDAY [HLA-A_Y137_R138H] | 0.84 |
| SIKDKYLTALF [KCNH2_Y611_V612L_YF] | 0.435 |
| AHPIIYDIIEA [PYKtide_D_2014] | 12.7 |
| AEEKEYHAEEG [EGFR_Y869_G873E] | 0.649 |
| VGGRIYIDDAL [PKLR_Y218_G222A] | 0.51 |
| VAFVYYKSIGP [ADGRL4_Y302] | 0.678 |

| Sequence | phosphorylation enrichment |
| --- | --- |
| FTNRNYDLDYD [MYC_Y12] | 0.666 |
| DVYVSYDYGKS [SORL1_Y139] | 2.95 |
| ICGVSYDEYRY [CFTR_Y512_F508C] | 0.733 |
| LLREWYVQDPY [SIX3_Y225_L226V] | 0.598 |
| KVKPIYLHTQG [AR_Y916_F917L] | 0.496 |
| YVKEPYIQSRF [HIPK4_Y175] | 0.406 |
| SGSIHYSCVPR [GLB1_Y57_R59C] | 0.591 |
| ADMETYLLEKS [MYH7_Y266_I263M] | 0.612 |
| ISTAGYSIPEL [EDAR_Y406] | 0.525 |
| FEEDSYVKRSQ [RET_Y905_YF] | 0.52 |
| TGDFGYRAPGF [TNS2_Y668_YF] | 0.501 |
| DAAEDYAEGVC [DHODH_Y194_R199C] | 0.801 |
| TTKAKYKTPTF [PLD2_Y573_YF] | 0.305 |
| TSIGNYYKPWF [DHCR24_Y299_N294T] | 16.3 |
| HPAGNYSLSSV [ARFGAP3_Y473_Q468H] | 0.706 |
| NARGLYFKLHN [GATA2_Y376_C373R_YF] | 0.622 |

Biological target: EPHB2 (UniProt P29323)
Sequence (P29323 whole entry, looked up): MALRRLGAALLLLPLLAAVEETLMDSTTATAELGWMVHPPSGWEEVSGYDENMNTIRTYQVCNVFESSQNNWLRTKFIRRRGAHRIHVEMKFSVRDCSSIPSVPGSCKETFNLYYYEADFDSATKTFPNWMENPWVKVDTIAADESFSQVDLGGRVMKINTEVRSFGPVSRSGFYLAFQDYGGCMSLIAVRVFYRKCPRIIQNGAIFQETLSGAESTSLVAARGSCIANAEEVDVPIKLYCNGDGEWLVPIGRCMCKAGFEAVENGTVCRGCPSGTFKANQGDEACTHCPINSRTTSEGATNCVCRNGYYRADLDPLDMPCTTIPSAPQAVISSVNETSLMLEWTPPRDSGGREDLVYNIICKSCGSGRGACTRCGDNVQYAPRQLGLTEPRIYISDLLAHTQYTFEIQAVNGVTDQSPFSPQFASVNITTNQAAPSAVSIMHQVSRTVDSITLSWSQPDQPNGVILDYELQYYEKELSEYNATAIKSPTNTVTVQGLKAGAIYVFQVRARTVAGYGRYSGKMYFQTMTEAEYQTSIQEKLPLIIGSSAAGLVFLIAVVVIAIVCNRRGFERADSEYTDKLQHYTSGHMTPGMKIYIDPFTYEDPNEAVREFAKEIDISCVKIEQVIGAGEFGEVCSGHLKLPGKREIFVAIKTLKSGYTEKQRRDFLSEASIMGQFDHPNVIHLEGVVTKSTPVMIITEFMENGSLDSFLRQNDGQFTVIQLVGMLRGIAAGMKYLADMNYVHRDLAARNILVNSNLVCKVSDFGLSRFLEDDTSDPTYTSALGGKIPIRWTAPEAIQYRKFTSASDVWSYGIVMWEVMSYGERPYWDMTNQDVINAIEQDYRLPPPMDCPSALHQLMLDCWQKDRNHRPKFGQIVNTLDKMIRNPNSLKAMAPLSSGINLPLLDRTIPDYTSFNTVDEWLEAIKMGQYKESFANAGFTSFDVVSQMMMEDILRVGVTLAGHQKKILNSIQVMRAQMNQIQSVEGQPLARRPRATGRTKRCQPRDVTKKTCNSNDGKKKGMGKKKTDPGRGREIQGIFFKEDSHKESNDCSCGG
Experiment: as above

| Sequence | phosphorylation enrichment |
| --- | --- |
| PTKNDYWAMLA [WWOX_Y287] | 1.61 |
| FQNSLYAPDFS [FAM92A_Y226_R222Q_YF] | 4.54 |
| PVADPYDQSFE [MAPK14_Y323] | 0.632 |
| VNFDFYTVNLG [GFPT1_Y367_D366Y_YF] | 0.772 |
| KRGASYILKLA [SERPINB1_Y84] | 0.477 |
| SLTGAYASGIP [POM121C_Y378_T379A] | 0.43 |
| EEGNPYYSSTR [MCCC2_Y520_A524T] | 0.531 |
| DPLLTYRFPPN [LMNA_Y481_K486N] | 0.455 |
| IRRIAYEFVEM [ADA_Y84_K80R] | 0.543 |
| VDEERYDIEGK [TNNI3_Y112_A116G] | 0.74 |
| MHDSNCVSKGS [PDGFRA_Y849_Y849C] | 0.367 |
| RFLRGYHQDAY [HLA-A_Y137_R138H] | 1.03 |
| SIKDKYLTALF [KCNH2_Y611_V612L_YF] | 0.449 |
| AHPIIYDIIEA [PYKtide_D_2014] | 10.7 |
| AEEKEYHAEEG [EGFR_Y869_G873E] | 0.815 |
| VGGRIYIDDAL [PKLR_Y218_G222A] | 0.497 |
| VAFVYYKSIGP [ADGRL4_Y302] | 0.653 |

| Sequence | phosphorylation enrichment |
| --- | --- |
| FTNRNYDLDYD [MYC_Y12] | 0.637 |
| DVYVSYDYGKS [SORL1_Y139] | 5.62 |
| ICGVSYDEYRY [CFTR_Y512_F508C] | 0.704 |
| LLREWYVQDPY [SIX3_Y225_L226V] | 0.675 |
| KVKPIYLHTQG [AR_Y916_F917L] | 0.457 |
| YVKEPYIQSRF [HIPK4_Y175] | 0.465 |
| SGSIHYSCVPR [GLB1_Y57_R59C] | 0.585 |
| ADMETYLLEKS [MYH7_Y266_I263M] | 0.581 |
| ISTAGYSIPEL [EDAR_Y406] | 0.464 |
| FEEDSYVKRSQ [RET_Y905_YF] | 0.492 |
| TGDFGYRAPGF [TNS2_Y668_YF] | 0.414 |
| DAAEDYAEGVC [DHODH_Y194_R199C] | 0.713 |
| TTKAKYKTPTF [PLD2_Y573_YF] | 0.235 |
| TSIGNYYKPWF [DHCR24_Y299_N294T] | 15.7 |
| HPAGNYSLSSV [ARFGAP3_Y473_Q468H] | 0.58 |
| NARGLYFKLHN [GATA2_Y376_C373R_YF] | 0.634 |

Biological target: FGFR1 (UniProt P11362)
Sequence (P11362 whole entry, looked up): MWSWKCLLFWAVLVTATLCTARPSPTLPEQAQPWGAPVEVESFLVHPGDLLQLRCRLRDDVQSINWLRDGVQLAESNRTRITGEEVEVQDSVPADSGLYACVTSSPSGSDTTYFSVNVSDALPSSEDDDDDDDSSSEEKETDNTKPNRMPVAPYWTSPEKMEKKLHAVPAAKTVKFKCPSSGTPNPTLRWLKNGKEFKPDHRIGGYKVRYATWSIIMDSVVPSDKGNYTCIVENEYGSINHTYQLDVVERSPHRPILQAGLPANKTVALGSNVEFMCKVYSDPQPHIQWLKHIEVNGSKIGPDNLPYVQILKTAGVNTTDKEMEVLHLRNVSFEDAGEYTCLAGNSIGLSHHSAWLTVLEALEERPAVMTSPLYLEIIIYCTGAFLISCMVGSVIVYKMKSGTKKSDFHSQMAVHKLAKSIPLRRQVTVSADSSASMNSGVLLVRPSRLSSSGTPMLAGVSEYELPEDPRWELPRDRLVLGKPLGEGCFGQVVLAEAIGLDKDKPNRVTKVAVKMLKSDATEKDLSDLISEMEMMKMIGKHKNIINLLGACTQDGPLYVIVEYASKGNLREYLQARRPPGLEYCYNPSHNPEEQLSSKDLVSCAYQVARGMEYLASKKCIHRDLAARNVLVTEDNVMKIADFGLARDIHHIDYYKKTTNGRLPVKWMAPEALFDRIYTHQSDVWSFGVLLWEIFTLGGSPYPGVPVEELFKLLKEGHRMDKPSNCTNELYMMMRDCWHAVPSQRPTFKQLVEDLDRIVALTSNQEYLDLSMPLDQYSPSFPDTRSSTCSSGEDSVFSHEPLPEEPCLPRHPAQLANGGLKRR
Experiment: as above

| Sequence | phosphorylation enrichment |
| --- | --- |
| PTKNDYWAMLA [WWOX_Y287] | 7.82 |
| FQNSLYAPDFS [FAM92A_Y226_R222Q_YF] | 1.48 |
| PVADPYDQSFE [MAPK14_Y323] | 0.941 |
| VNFDFYTVNLG [GFPT1_Y367_D366Y_YF] | 0.593 |
| KRGASYILKLA [SERPINB1_Y84] | 0.509 |
| SLTGAYASGIP [POM121C_Y378_T379A] | 0.519 |
| EEGNPYYSSTR [MCCC2_Y520_A524T] | 0.672 |
| DPLLTYRFPPN [LMNA_Y481_K486N] | 0.766 |
| IRRIAYEFVEM [ADA_Y84_K80R] | 0.869 |
| VDEERYDIEGK [TNNI3_Y112_A116G] | 0.539 |
| MHDSNCVSKGS [PDGFRA_Y849_Y849C] | 0.456 |
| RFLRGYHQDAY [HLA-A_Y137_R138H] | 0.572 |
| SIKDKYLTALF [KCNH2_Y611_V612L_YF] | 0.481 |
| AHPIIYDIIEA [PYKtide_D_2014] | 0.699 |
| AEEKEYHAEEG [EGFR_Y869_G873E] | 0.605 |
| VGGRIYIDDAL [PKLR_Y218_G222A] | 0.542 |
| VAFVYYKSIGP [ADGRL4_Y302] | 0.656 |

| Sequence | phosphorylation enrichment |
| --- | --- |
| FTNRNYDLDYD [MYC_Y12] | 0.69 |
| DVYVSYDYGKS [SORL1_Y139] | 6.8 |
| ICGVSYDEYRY [CFTR_Y512_F508C] | 0.478 |
| LLREWYVQDPY [SIX3_Y225_L226V] | 0.597 |
| KVKPIYLHTQG [AR_Y916_F917L] | 0.441 |
| YVKEPYIQSRF [HIPK4_Y175] | 0.491 |
| SGSIHYSCVPR [GLB1_Y57_R59C] | 0.536 |
| ADMETYLLEKS [MYH7_Y266_I263M] | 0.573 |
| ISTAGYSIPEL [EDAR_Y406] | 0.416 |
| FEEDSYVKRSQ [RET_Y905_YF] | 0.41 |
| TGDFGYRAPGF [TNS2_Y668_YF] | 0.542 |
| DAAEDYAEGVC [DHODH_Y194_R199C] | 0.658 |
| TTKAKYKTPTF [PLD2_Y573_YF] | 0.224 |
| TSIGNYYKPWF [DHCR24_Y299_N294T] | 5.29 |
| HPAGNYSLSSV [ARFGAP3_Y473_Q468H] | 0.562 |
| NARGLYFKLHN [GATA2_Y376_C373R_YF] | 0.554 |
